# Experimental data published in US20220243196, “[…] METHOD OF APTAMER AND IMMUNOASSAY USING THE APTAMER” (SB BIOSCIENCE CO., LTD., published 2022).
# B1: Ebola NP aptamer (ssDNA)
# DNA: GATGTGAGTGACGTGGATCGAGCGGATGTGAAGGCTGAAAGTGGCTTTGGGCGGTCGTAAGTGTCACAGAGCATGCAACAAGACC
# B2: HIV-1 p24 aptamer (ssDNA)
# DNA: AGATACTGCCATTCATTGCATCGAGCACGCGACTGATGAGGATGGTCTAGTAGCTGGGGTCGAGTACTAAGCTATGTGTCGA
# B3: SARS-CoV-2 NP aptamer (ssDNA)
# DNA: ATCCAGAGTGACGCAGCAAACCCAAGCAAACTACCTCTATACCCTTCGACCTTCATCATGGACACGGTGGCTTAGT
# Tests used:
# [1] = target: Ebola NP (Ebola virus, UniProt P18272 P18272:1-739); experiment: ELONA
# [2] = target: HIV-1 p24 (Human immunodeficiency virus 1, UniProt P04591 P04591:133-363); experiment: ELONA; antibody-antigen-aptamer sandwich with RPA readout
# [3] = target: SARS-CoV-2 NP (SARS-CoV-2, UniProt P0DTC9 P0DTC9:1-419); experiment: ELONA
binder,measurement,setting,value
B1,binding result,[1],binds
B2,binding result,[2],binds
B3,binding result,[3],binds
